Positions count from the first letter of the chain named.
B1: Hu2B5.1: humanized 2B5-8.0; VH SEQ ID NO 60, VL SEQ ID NO 61 (antibody, V domains shown)
VH: EVQLVQSGAEVKKPGASVKVSCKASGYTFTKYWLGWVRQAPGQGLEWIGDIYPGYDYTHYNEKFKDRATLTVDTSTSTAYMELRSLRSDDTAVYYCARSDGSSTYWGQGTLVTVSS
VL: DVVMTQTPLSLPVTPGEPASISCTSSQNIVHSNGNTYLEWYLQKPGQSPQLLIYKVSNRFSGVPDRFSGSGSGTDFTLKISRVEAEDVGVYYCFQVSHVPYTFGGGTKVEIKR
B2: Hu2B5.6: humanized 2B5-8.0; VH SEQ ID NO 70, VL SEQ ID NO 71 (antibody, V domains shown)
VH: B1 VH with I48M, A68V, V72T, R84S
VL: B1 VL
B3: Hu2B5.2: humanized 2B5-8.0; VH SEQ ID NO 62, VL SEQ ID NO 63 (antibody, V domains shown)
VH: B1 VH with R84S
VL: B1 VL
B4: Hu2B5.4: humanized 2B5-8.0; VH SEQ ID NO 66, VL SEQ ID NO 67 (antibody, V domains shown)
VH: B1 VH with R84S
VL: B1 VL with V3L
B5: Hu2B5.3: humanized 2B5-8.0; VH SEQ ID NO 64, VL SEQ ID NO 65 (antibody, V domains shown)
VH: B1 VH
VL: B1 VL with V3L
B6: Hu2B5.8: humanized 2B5-8.0; VH SEQ ID NO 74, VL SEQ ID NO 75 (antibody, V domains shown)
VH: B1 VH with I48M, A68V, V72T, R84S
VL: B1 VL with V3L
B7: 2B5-8.0: recombinant anti-PGE2 antibody from solved 2B5 sequence; VH SEQ ID NO 42, VL SEQ ID NO 43 (antibody, V domains shown)
VH: QVQLQQSGPELVRPGSSVKISCKASGYTFTKYWLGWVKQRPGHGLEWIGDIYPGYDYTHYNEKFKDKATLTVDTSSSTAYMQLSSLTSEDSAIYYCARSDGSSTYWGQGTLVTVSA
VL: B1 VL with V3L, T14S, P15L, E17D, P18Q, K44R, Q50K, D75V, V88L, V109L

System: not listed separately
Test: Accelerated stability screening monitored by SEC
Format: physicochemical
Details: SEC, 7 days storage at 50° C.
Method: Size exclusion chromatography was used to separate proteins based on size. Proteins are carried in an aqueous mobile phase and through a porous stationary phase resin packed in a column. The retention time in the column is a function of the hydrodynamic size of the protein and the size of the pores in the packed resin bed. Smaller molecules can penetrate into smaller pores in the resin and are retained longer than larger molecules. Upon elution from the column the proteins are detected by UV absorbance. The SEC method used a TSK gel guard (TOSOH Biosciences, Montgomeryville, Pa., cat. no. 08543) and a TSK gel G3000SWxL (TOSOH Biosciences, Montgomeryville, Pa., cat. no. 08541). The mobile phase was 100 mM Na2HPO4, 200 mM Na2SO4, pH 7.0. The flow rate was 0.3 mL/minute. Injection volume was 20 μL of 1 mg/mL sample. The column temperature was room temperature. The autosampler temperature was 2-8° C. The total run time was 50 minutes. The detection was based on UV absorbance at 214 nm wavelength, with band width set at 8 nm, using reference wavelength at 360 nm with band width 100 nm.
The stability of a series of clones (i.e., anti-PGE2 antibodies) of the parent anti-PGE2 antibody was assessed by using intrinsic thermodynamic clone stability determination using DSC (0.79 mg/mL clone concentration, formulated at pH 6 in a 10 mM citrate, 10 mM phosphate buffer) and by accelerated stability screening (0.79 mg/mL clone concentration, formulated at pH 6 in a 10 mM citrate, 10 mM phosphate buffer, for 7 days at 50° C.) where clone stability was monitored with SEC (Table 15).

Molecule	Aggregate (%)	Fragment (%)	Monomer (%)
B1	2.5611%	6.3675%	91.0715%
B2	2.1577%	4.0253%	93.817%
B3	2.1753%	4.6755%	93.1491%
B4	2.1689%	6.5423%	91.2889%
B5	2.6042%	5.044%	92.3518%
B6	2.5144%	4.184%	93.3016%

Same assay, conditions: SEC, start of stability study

Molecule	Fragment (%)	Monomer (%)
B1	4.4044%	93.7885%
B2	2.7275%	95.446%
B3	3.3025%	94.8516%
B4	3.2146%	94.5513%
B5	3.6853%	94.1987%
B6	3.2904%	94.5969%

Same assay, conditions: SEC, start of stability study; 0.79 mg/mL, pH 6

Molecule	Aggregate (%)
B1	1.8071%
B2	1.8265%
B3	1.846%
B4	2.234%
B5	2.116%
B6	2.1126%

System: PGE2 induced Ca++ influx in HEK293 Gα16 cells stably transfected with human EP4 receptor
Test: EP4 bioassay: PGE2 induced Ca++ flux (FLIPR)
Format: cell-based
Details: not given

Molecule	inhibition of PGE2 induced calcium influx in EP4 bioassay
B7	potently inhibited

Same assay, conditions: PGE2 25 pm; read-out: IC50 (pM) @ PGE2 25 pm Cellular Potency in EP4 assay

Molecule	IC50
B1	55 pM
B2	52 pM
B3	55 pM
B4	40 pM
B5	47 pM
B6	78 pM

Same assay, conditions: read-out: PGE2 Neutralization Potency in Cellular EP4 assay (IC50)

Molecule	IC50
B7	44 pM
